Assay results as given in PMC2629732.

Columns and labels:
Experiment in all cases: EMSA
TAF3 = biological target: T1, TAF3 (UniProt Q5HZG4 1-932)
T1 sequence: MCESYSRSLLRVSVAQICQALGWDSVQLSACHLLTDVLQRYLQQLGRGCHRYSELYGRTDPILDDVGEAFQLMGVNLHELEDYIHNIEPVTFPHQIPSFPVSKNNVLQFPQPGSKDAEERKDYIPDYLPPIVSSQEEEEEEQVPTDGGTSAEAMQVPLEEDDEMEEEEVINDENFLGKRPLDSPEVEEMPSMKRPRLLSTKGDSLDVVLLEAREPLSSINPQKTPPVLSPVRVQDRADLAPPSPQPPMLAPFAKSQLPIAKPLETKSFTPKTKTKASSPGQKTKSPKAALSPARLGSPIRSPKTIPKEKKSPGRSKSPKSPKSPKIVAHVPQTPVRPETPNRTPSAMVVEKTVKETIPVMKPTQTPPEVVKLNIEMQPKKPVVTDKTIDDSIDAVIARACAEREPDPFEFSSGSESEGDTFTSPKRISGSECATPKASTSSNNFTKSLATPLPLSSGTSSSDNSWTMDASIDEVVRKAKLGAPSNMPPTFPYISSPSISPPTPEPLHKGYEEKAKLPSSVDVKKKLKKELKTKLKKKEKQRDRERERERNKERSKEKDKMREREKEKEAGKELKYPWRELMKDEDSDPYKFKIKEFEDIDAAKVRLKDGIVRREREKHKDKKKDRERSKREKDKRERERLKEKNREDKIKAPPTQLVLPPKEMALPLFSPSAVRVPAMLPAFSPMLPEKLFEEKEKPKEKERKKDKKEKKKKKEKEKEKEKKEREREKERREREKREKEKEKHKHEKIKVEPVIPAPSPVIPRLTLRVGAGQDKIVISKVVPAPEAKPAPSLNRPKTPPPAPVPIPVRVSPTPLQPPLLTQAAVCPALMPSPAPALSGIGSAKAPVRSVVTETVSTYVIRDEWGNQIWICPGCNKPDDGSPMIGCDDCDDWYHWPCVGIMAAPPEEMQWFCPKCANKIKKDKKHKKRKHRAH

TAF3;TRF3 = biological target: T2, TAF3;TRF3 (mouse?;mouse?, UniProt Q5HZG4;Q6SJ95 1-932;1-350, |)
T2 sequence 1: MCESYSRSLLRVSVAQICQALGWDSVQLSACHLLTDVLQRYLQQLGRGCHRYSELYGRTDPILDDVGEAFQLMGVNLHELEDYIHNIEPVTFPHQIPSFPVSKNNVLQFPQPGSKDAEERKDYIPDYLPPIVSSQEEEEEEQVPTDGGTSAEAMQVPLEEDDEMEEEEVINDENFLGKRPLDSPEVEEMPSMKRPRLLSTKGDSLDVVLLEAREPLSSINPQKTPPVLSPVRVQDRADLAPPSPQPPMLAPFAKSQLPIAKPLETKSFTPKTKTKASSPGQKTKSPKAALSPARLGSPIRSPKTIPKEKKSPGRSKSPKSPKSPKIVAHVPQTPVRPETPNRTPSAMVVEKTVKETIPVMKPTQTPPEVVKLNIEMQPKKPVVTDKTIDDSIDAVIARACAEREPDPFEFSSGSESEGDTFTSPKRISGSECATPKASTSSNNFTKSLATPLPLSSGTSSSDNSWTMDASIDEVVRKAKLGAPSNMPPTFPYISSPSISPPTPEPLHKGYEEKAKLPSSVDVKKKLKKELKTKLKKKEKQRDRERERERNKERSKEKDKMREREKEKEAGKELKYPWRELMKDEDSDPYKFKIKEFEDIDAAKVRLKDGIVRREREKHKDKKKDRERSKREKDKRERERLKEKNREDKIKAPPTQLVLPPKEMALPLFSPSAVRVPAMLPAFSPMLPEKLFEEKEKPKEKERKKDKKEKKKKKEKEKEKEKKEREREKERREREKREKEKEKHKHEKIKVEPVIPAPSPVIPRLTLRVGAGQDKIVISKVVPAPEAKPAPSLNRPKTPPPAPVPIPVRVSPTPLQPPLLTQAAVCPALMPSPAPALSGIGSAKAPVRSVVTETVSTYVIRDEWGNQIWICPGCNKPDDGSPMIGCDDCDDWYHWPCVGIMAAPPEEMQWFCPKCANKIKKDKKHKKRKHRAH
T2 sequence 2: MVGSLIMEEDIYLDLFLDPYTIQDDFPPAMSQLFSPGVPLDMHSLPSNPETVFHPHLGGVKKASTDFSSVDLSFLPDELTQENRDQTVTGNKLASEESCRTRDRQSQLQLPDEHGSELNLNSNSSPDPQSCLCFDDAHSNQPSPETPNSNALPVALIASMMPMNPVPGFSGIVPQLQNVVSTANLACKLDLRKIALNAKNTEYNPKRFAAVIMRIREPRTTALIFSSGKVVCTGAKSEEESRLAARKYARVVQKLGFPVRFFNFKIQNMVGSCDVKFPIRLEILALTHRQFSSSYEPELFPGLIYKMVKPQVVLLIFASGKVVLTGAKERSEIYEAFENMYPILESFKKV

TRF3 = biological target: T3, TRF3 (UniProt Q6SJ95 1-350)
T3 sequence: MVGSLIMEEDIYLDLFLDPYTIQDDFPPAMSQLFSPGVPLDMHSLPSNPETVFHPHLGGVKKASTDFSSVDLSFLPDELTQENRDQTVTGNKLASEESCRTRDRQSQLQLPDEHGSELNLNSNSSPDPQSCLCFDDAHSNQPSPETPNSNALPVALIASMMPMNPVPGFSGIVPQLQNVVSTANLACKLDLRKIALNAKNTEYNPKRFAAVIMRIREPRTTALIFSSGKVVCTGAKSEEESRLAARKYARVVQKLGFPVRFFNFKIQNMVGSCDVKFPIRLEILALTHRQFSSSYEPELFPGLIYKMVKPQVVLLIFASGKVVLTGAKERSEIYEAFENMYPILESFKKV

B1: Myogenin TATA probe / TATA competitor (dsDNA)
DNA 1: GAGGGTTTAAATGGCACCCAG
DNA 2: CTGGGTGCCATTTAAACCCTC
- binding result (TAF3): no binding
- binding result (TAF3;TRF3): binds
- binding result (TRF3): binds
